Measured values from patent US20240083991A1.
Values belong to the binder of their own block, whether it stands above or below them.

Key:
[1] = target: human mature BMP9 (human) (UniProt Q9UK05); experiment: competition ELISA: antibody mixed with 5 nM BMP9-biotin, binding to coated ActRIIA (5 µg/ml) detected
[2] = target: human mature BMP9 (human) (UniProt Q9UK05); experiment: competition ELISA: antibody mixed with 15 nM BMP9-biotin, binding to coated ActRIIB (5 µg/ml) detected
[3] = target: human mature BMP9 (human) (UniProt Q9UK05); experiment: competition ELISA: antibody mixed with 1.5 nM BMP9-biotin, binding to coated BMPRII (2 µg/ml) detected
[4] = target: human mature BMP9 (human) (UniProt Q9UK05); experiment: competition ELISA: antibody mixed with 0.6 nM BMP9-biotin, binding to coated BMPRII (1 µg/ml) detected
[5] = target: human mature BMP9 (human) (UniProt Q9UK05); experiment: competition ELISA: antibody mixed with 0.2 nM BMP9-biotin, binding to coated ALK1 (1 µg/ml) detected
[6] = target: human mature BMP9 (human) (UniProt Q9UK05); experiment: competition ELISA: antibody mixed with 0.5 nM BMP9-biotin, binding to coated ALK1 (1 µg/ml) detected

Chain of human mature BMP9 (human) (Q9UK05 320-429): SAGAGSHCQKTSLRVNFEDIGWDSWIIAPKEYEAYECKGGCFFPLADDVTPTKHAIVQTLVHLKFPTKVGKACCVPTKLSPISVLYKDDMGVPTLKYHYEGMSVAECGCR

IC50 (read off the curve) [1]: 2 nM
IC50 (read off the curve) [2]: 8 nM
IC50 (read off the curve) [3]: 2 nM
IC50 (read off the curve) [4]: 0.1 nM
B1: BM01 (antibody, from another filing, V domains shown)
VH: QVQLVQSGAEVKKPGASVKVSCKASGYTFTRYWMHWVRQAPGQGLEWMGEINPSQGGTNYNEKFKSRVTMTVDKSISTAYMELSRLRSDDTAVYYCAIGSNYGGLVYWGQGTLVTVSS
VL: EIVLTQSPATLSLSPGERATLSCRASESLDNYGISFMNWFQQKPGQAPRFLIYAASNQGSGIPARFSGSGSGTDFTLTISSLQPEDTAVYFCQQSKEVPRTFGGGTKVEIKR

IC50 (read off the curve) [5]: 0.06 nM
IC50 (read off the curve) [6]: 0.1 nM
B2: BM02 (antibody, from another filing, V domains shown)
VH: QVQLVQSGAEVKKPGASVKVSCKASGYTFRSYNMHWVRQAPGQGLEWMGLIYPGNAVTSYSQKFKDRVTMTVDKSTSTAYMELSSLRSEDTAVYYCAKDDYFRGGSYAMDYWGQGTTVTVSS
VL: EIVLTQSPDFQSVTPKEKVTITCRASQSIRNNLHWYQQKPDQSPKLLIKYASQSIRGVPSRFSGSGSGTDFTLTINSLEAEDAATYYCQQSHSWPYTFGGGTKVEIKR
